Molecular target: Arp2/3 complex (Bos taurus, UniProt A7MB62, CK-666)
Experiment: fluorescence anisotropy

- Kd: 1200 nM
B1: cortactin NTA N-terminal acidic region (protein)
chain: MWKASAGHAVSIAQDDAGADDWETDPDFVNDVSEKEQRWGAKTVQGSGHQEHINIHKLRENVFQEHQTLKEKELETGPKASHGY

Reference: PMC3684959 (2013)
